B1: CAMK2D (parent)
chain: IVRLHDSISEEGFHYLVFDLVTGG

Variants of: B1
Test: protein stability index of a GFP-peptide fusion (GPS, HEK-293T) (PSI 1-6); higher = more stable
Conditions: c terminus: a fixed tail appended
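Further: lentivirally expressed fusions sorted by FACS into six bins by GFP to DsRed ratio, PSI derived from sequencing read proportions per bin multiplied by bin number.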

Point of comparison: D19T, protein stability index 1.62. Against it:
- V21N — higher, 4.11
- V21P — higher, 2.41
- V21K — lower, 1.57
- V21F — higher, 3.33
- V21G — higher, 3.19
- V21H — higher, 2
- V21D — higher, 3.2
- V21W — higher, 4.26
- V21M — higher, 1.93
- V21L — higher, 2.71
- V21T — higher, 2.88
- V21Y — higher, 3.1
- V21Q — higher, 2.38
- V21A — lower, 1.11
- Y15E — higher, 1.7
- Y15K — higher, 2.76
- Y15A — higher, 2.98
- Y15W — higher, 2.7
- Y15N — higher, 2.46
- Y15S — lower, 1.06
- Y15D — higher, 1.89
- Y15Q — lower, 1.58
- Y15H — lower, 1.2
- Y15R — lower, 1.21
- Y15I — higher, 2.54
- Y15P — higher, 1.75
- Y15F — higher, 2.63
- L20T — higher, 2.27
- L20K — higher, 2.41
- L20S — lower, 1.45
- L20H — lower, 1.35
- L20G — higher, 1.93
- L20A — higher, 2.13
- L20M — higher, 3.24
- L20P — higher, 1.86
- L20I — higher, 3.09
- L20D — higher, 1.67
- L20Y — higher, 2.67
- L20Q — higher, 2.52
- L20R — higher, 2.04
- L20N — higher, 2.25
- L20E — higher, 2.05
- L20V — higher, 3.87
- L20C — higher, 3.9
- V17I — higher, 2.58
- V17K — higher, 2.56
- V17D — lower, 1.46
- V17W — higher, 2.39
- V17L — lower, 1
- V17A — higher, 2.78
- V17Y — higher, 3.27
- V17R — higher, 2.13
- V17P — higher, 2.04
- V17F — higher, 2.39
- V17H — higher, 2.93
- V17G — higher, 3.58
- V17E — higher, 1.69
- V17T — higher, 1.75
- V17N — higher, 1.85
- V17S — higher, 3.19
- G23A — higher, 3.32
- G23H — higher, 2.88
- G23Q — higher, 2.59
- G23N — higher, 2.49
- G23V — higher, 2.43
- G23K — higher, 2.19
- G23E — higher, 3.03
- G23I — higher, 2.57
- G23L — higher, 2.92
- G23T — higher, 3.2
- G23Y — higher, 4.01
- G23R — higher, 2.53
- G23W — higher, 2.89
- G23P — higher, 3.1
- G23C — higher, 4.08
- H14K — higher, 2.2
- H14M — higher, 2.25
- H14P — higher, 2.79
- H14Y — higher, 2.71
- H14A — higher, 2.32
- H14E — higher, 1.83
- H14C — higher, 2.29
- H14D — higher, 1.85
- D19K — higher, 2.88
- D19A — higher, 1.87
- D19I — higher, 2.4
- D19L — higher, 2.47
- D19M — higher, 3.68
- D19V — higher, 2.75
- D19G — higher, 2.15
- D19S — higher, 4.24
- D19Q — higher, 2.4
- D19P — higher, 3.21
- D19W — higher, 1.91
- D19Y — higher, 3.34
- L16E — lower, 1.57
- L16H — lower, 1.39
- L16Q — higher, 2.04
- L16G — higher, 2.17
- L16A — higher, 3.09
- L16P — higher, 1.74
- L16D — higher, 1.63
- L16Y — higher, 2.98
- L16R — higher, 2.51
- L16F — higher, 2.76
- L16S — lower, 1.55
- L16C — higher, 2.49
- L16T — lower, 1.21
- L16N — lower, 1.5
- L16I — higher, 2.66
- F18V — higher, 4.52
- F18D — higher, 2.67
- F18L — higher, 2.51
- F18P — higher, 2.13
- F18K — higher, 2.17
- F18S — higher, 2
- F18T — higher, 2.1
- F18A — higher, 2.33
- F18R — higher, 1.79
- F18Q — lower, 1.33
- F18H — higher, 1.63
- F18G — higher, 2
- F18C — lower, 1.32
- F18E — higher, 2.33
- F18Y — lower, 1.43
- F18N — higher, 2.84
- G12T — higher, 3.32
- G12V — higher, 3.05
- G12Y — higher, 3.96
- G12W — higher, 3.89
- G24K — higher, 2.87
- G24F — lower, 1.57
- G24V — higher, 3.44
- G24D — higher, 2.26
- G24R — higher, 2.09
- G24P — higher, 3.4
- G24M — higher, 3.78
- G24Y — higher, 3.88
- G24W — higher, 2.09
- G24Q — higher, 2.89
- G24L — higher, 2.13
- G24S — higher, 2.88
- G24C — higher, 2.4
- G24E — higher, 4.45
- F13M — higher, 2.71
- F13E — higher, 2.6
- F13D — higher, 1.91
- F13T — higher, 3.34
- F13P — lower, 1.08
- F13S — higher, 3.27
- F13Q — lower, 1.37
- F13N — higher, 2.2
- F13W — higher, 2.18
- F13H — the same, 1.62
- F13L — higher, 2.02
- F13K — lower, 1.43
- F13Y — higher, 3.07
- F13A — higher, 1.76
- T22Y — higher, 3.62
- T22C — higher, 3.58
- T22I — higher, 2.22
- T22E — higher, 2.96
- T22H — higher, 2.24
- T22K — higher, 3.31
- T22N — higher, 4.16
- T22M — higher, 2.02
- T22S — higher, 2.67

— the supplement of paper PMC10567573
